Paper PMC3498451

Target: HIV-1 Gag-glutathione-S-transferase (GST) fusion protein, wild type (HIV-1)
Test: cross-linking + pull-down

B1: 2',3'-cyclic-nucleotide 3'-phosphodiesterase (CNP), human, wild type (natural protein)
chain: MNRGFSRKSHTFLPKIFFRKMSSSGAKDKPELQFPFLQDEDTVATLLECKTLFILRGLPGSGKSTLARVIVDKYRDGTKMVSADAYKITPGARGAFSEEYKRLDEDLAAYCRRRDIRILVLDDTNHERERLEQLFEMADQYQYQVVLVEPKTAWRLDCAQLKEKNQWQLSADDLKKLKPGLEKDFLPLYFGWFLTKKSSETLRKAGQVFLEELGNHKAFKKELRQFVPGDEPREKMDLVTYFGKRPPGVLHCTTKFCDYGKAPGAEEYAQQDVLKKSYSKAFTLTISALFVTPKTTGARVELSEQQLQLWPSDVDKLSPTDNLPRGSRAHITLGCAADVEAVQTGLDLLEILRQEKGGSRGEEVGELSRGKLYSLGNGRWMLTLAKNMEVRAIFTGYYGKGKPVPTQGSRKGGALQSCTII
stoichiometry N: 1 CNP:Gag-GST
